Measured values published in PMC4861126.

Target: Rap1 preloaded with mGppNHp (GDI assay) (Dictyostelium) (UniProt P18613)
Experiment: GDI (guanine nucleotide dissociation inhibition) assay, fluorescence; mGppNHp labelled G-protein with indicated amounts of RA-TalB, 200 fold excess of GppNHp, 25 °C; 50 mM Tris-HCl pH 7.5, 5 mM MgCl2, 50 mM NaCl, 5 mM DTE; Kd from dependence of kobs on RA-TalB concentration

UniProt P18613, sequence (P18613 whole entry): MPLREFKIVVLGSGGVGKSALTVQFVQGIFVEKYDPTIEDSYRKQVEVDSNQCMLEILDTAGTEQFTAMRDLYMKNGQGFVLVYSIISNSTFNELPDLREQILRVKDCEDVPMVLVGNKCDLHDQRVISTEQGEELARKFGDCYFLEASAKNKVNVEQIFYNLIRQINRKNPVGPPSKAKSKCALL

Kd: 19.9 µM
B1: Dictyostelium RA-TalB domain (residues 1-122) (domain or fragment)
chain: MSLTLKIQIVRDKQVKAMKFSPTQTVAEVCAQVREKINETSGDDHGLFQPGIDAKRPSRWLKMDKTLQFYDLKINDELDYKKKHRPLKVRLMDETVKTMLVDDSLTAGEILEIIGKRIGIKN
